This passage reports Kd, koff and kon results from patent US20240059762A1 (SINGLE CELL TECHNOLOGY, published 2024).

B1: SCT-Pa06 (antibody, mouse IgG1, kappa, V domains shown)
VH: QVTLKESGPGILQPSQTLSLTCSFSGFSLSTYGMGVGWIRQPSGKGLEWLANIWWNDDKNYNSALKSRLTISKDTSNNQLFLRISSVDTADTATYFCAQIPAYYSNSWFAYWGHGTLVTVSA
VL: ENVLTQSPAIMAASPGEKVTMTCSASSSVSSGNFHWYQQKPGTSPKLWIYRTSNLASGVPARFSGSGSGTSYSLTISSMEAEDAATYYCQQWSGYPYTFGSGTKLKIKR
B2: SCT-Pa03 (antibody, mouse IgG1, kappa, V domains shown)
VH: QVQLKQSGAELVRPGASVKLSCKASGYTFTDYYINWVKQRPGQGLEWIARIYPGNNYAYYDEKFKGKATLTAEKSSSTAYMQLSSLTSEDSAVYFCAKDDGYRFAYWGQGTLVTVSA
VL: DIQMTQSSSYLSVSLGGRVTITCKASDHINNWLAWYQQKPGNAPRLLISGATSLETGVPSRFSGSGSGKDYTLSITSLQTEDVATYYCQQYWSTPPTFGGGTKLEIKR
B3: SCT-Pa09 (antibody, mouse IgG1, kappa, V domains shown)
VH: QVQLQQPGAELVKPGTSVRLSCQASGYTFTSSWIHWVKQRTGQGLEWIGEISLTNGDINYNEKFTSKATLTVDKSSSTAYMQLSSLTSEDSAVYYCTIIPDGYSLYWYFDVWGAGTTVTVSS
VL: QIVLSQSPPILSASPGARVTMTCRASSSVNYMHWYQQKPGSSPKPWIYATSNLASGVPVRFSGSGSGTSYSLTISRVEAEDAATYYCQQWSSNPPTFGGGTKLEIKR
B4: SCT-Pa17 (antibody, mouse IgG1, kappa, V domains shown)
VH: QVQLQQPGAELVKPGASVKLSCKASGYAFTSSWINWVKRRPGQGLEWIGNVYPRSSSPNYNEKFKGKATLTVDTSSSTAYMQLSSLTSDDSAVYFCARGYGSYWYFDVWGAGTSVTVSS
VL: DIQMTQSSSSFSVSLGDRVTITCKASEDIYNRLAWYQQKPGNAPRLLISGATTLETGVPSRFSGSGSGKDYALSITSLQTEDVSTYYCQEYWSLSPTFGGGTKLEIKR
B5: SCT-Pa11 (antibody, mouse IgG1, kappa, V domains shown)
VH: EVQLQQSGPELVKPGASVKMSCKASGYTFTSYVIHWVKQKPGQGLEWIGYINPYNDGTEYNEKFKGKATLTSDKSSSTAYMELSSLTSEDSAVYYCSRDDYNNRFAYWGPGTLVTVSA
VL: DIQMTQSPASLSASVGETVTITCRPSENIYSYLAWYQQKQGKSPQLLVYNAKTLVEGVPSRFSGSGSGTQFSLKINSVQPEDCGSYYCLHHFGTPWTFGGGTILEIKR
B6: SCT-Pa07 (antibody, mouse IgG1, kappa, V domains shown)
VH: EVQLQQSGPELVKPGDSVKMSCKASGYTFTDYYMDWVKQSHGKSLEWIGYIYTNNGDTNYNQKFKGKATLTVDKSSSTAYMELHSLTSEDSAVYYCASLYYSNFFDSWGQGTTLTVSS
VL: ENVLTQSPAIMSATLGEKVTVSCRARSNVKYMYWYQQKSGASPKLLIYYTSNLASGVPARFSGSGSGTSYSLTISSVEAEDAATYYCQQFTSSPFTFGSGTKLEIKR
B7: SCT-Pa14 (antibody, mouse IgG1, kappa, V domains shown)
VH: EVQLQQSGAELVSPGASVKLSCTASGFNIKDDYMHWVKQRPEQGLEWIGRIDPANGNTKYAPKFQDKATITADTSSNTAYLQLSSLTSEDTAVYYCFYSFYIPYTMDFWGQGTSVTVSS
VL: ENVLTQSPAIMSATLGEKVTMSCRASSNVKYMYWYQQKSGASPKLWIYYTSNLTSGVPARFSGSGSGTSYSLTISSVEAEDAATYYCQQFTSSPYTFGSGTKLEIKR
B8: SCT-Pa08 (antibody, mouse IgG1, kappa, V domains shown)
VH: QVQLHQSGAELVKPGASVKLSCKASGYTFTEYSIHWVKQRSGQDLEWIGWFNPGTGSIKYNEKFKDKATLTADKSSSTVYMELSRLTSEDSAVYFCARHGGRWVIQWNFDVWGTGTTVTVSS
VL: DIVMSQSPSSLAVSVGEKVTMSCKSSQNLLYSSNQKNFLAWYQQRPGQSPKLLIYWASTRESGVPDRFTGSGTGTDFTLTISSVKAEDLAVYYCQQYYRYPFTFGSGTKLEIKR
B9: SCT-Pa16 (antibody, mouse IgG1, kappa, V domains shown)
VH: QVQLQQPGTELVKPGASVKLSCKASGYTFTSYWMHWVKQRPGQGLEWIGSVNPSNGGANYNEKFKNKATLTVDKSSSTAYMQLSSLTSEDSAVYYCARRNGFPYYFDYWGQGTTLTVSS
VL: DIVMTQSQKFVSTSVGDRVSVTCKASQNVGTNVVWYQQKPGQSPKPLIYSASYRYSGVPDRFTGSGSGTDFTLTISNVQSEDLADYFCHQYNSSPLTFGVGTKLELKR
B10: SCT-Pa04 (antibody, mouse IgG1, kappa, V domains shown)
VH: EVQLQQSGPELVKPGASVKMSCKASGYSFTSYVMHWVKQKPGQGLEWIGYINPYNDGTKYNEKFKGKATLTSDKSSSTAFMDLSSLTSDDSAVYYCSRDDYSNPPFAYWGQGTLVTVSA
VL: SIVMTQTPKFLLVSAGDRITITCKASQSVSNNVAWYQQKPGQSPTLLISYASNRFTGVPDRFTGSGYGTDFTFTISIVQAEDLAVYFCQQDYDSPYTFGGGTKLEIKR
B11: SCT-Pa02 (antibody, mouse IgG1, kappa, V domains shown)
VH: QMQLKQSGPGLVQPSQSLSITCTVSGFSLTSYGVHWVRQSPEKGLEWLGVIWSGGGTDYNAAFISRLSISKDNSKSQVFLKMSSLQTDDTAIYYCARGAYYSLDYWGQGTTLTVSS
VL: DIVLTQSPASLAVSLGQRATISCRASESVDYDGDNYMNWYQQKPGQSPKLLIYATSNLESRIPARFSGSGSGTEFTLNIHPVEEEDAATYYCLQSYDVPYTFGSGTKLEMKR
B12: SCT-Pa01 (antibody, mouse IgG1, kappa, V domains shown)
VH: QVTLKESGPGILQPSQTLSLTCSFDGFSLSTFGMGVGWIRQPSGRGLEWLAHIWWDDDKNYKPALKSRLTISKDTSKNQVFLKIANVDTADTATYYCTRMREDSSDYVYYIMDYWGQGTSVIVAS
VL: QIVLTQSPSIMSASPGEKVTISCSASSSVSYMYWYQQKPGSSPRPWIYRTSNLASGVPARFSGSGSGTSYSLTITSMEAEDAATYYCQLYHSYPPTWTFGGGTKLEIKR
B13: SCT-Pa19 (antibody, mouse IgG1, kappa, V domains shown)
VH: QVQLQQPGAELVRPGSSVKLSCKASGYTFTNYWMLWVKQRPMQGLEWIGSIDPSDSETHYNQKFKDKATLTVDKSSSTAYMRLGSLTSEDSAVYYCARDSYGWYFDVWGTGTTVTVSS
VL: DIVMTQSQKFMSTSVGDRVSVTCKASQNVGSNVAWYQQKSGQSPKALIYSASYRYSGVPDRFTGSGYGTDFTLTISNVQSEDLAEYFCQQYNNYPLTFGAGTKLELKR
B14: SCT-Pa10 (antibody, mouse IgG1, kappa, V domains shown)
VH: QVQLQQSGPELVKPGASVKISCKASGYAFSTSWMNWMKQRPGKGLEWIGRIYPGDGETNYNGKFKGKATLTADKSSSTAYMQLSSLTSDDSAVYFCARGANGDYLFYLDYWGQGTTLTVSS
VL: DIQMTQTTSSLSASLGDRVTISCSASQDISDFLNWYQQKPDGTVKLLIYYTSSLHSGVPSRFSGSGSGTDYSLTINNLEPEDIATYYCQQYSKLPYTFGGGTKLEIRR
B15: SCT-Pa18 (antibody, mouse IgG1, kappa, V domains shown)
VH: QVQLQQPGAELVKPGASVKLSCKASGYTFTSYWMQWVKQRPGQGLEWIGEIAPSDSYTNYNQKFKGKATLTVDTSSSTAYMQLSSLTSEDSAVYYCAGGDYYGYDVKTWFAYWGQGTLVTVSA
VL: DIQMTQTTSSLSASLGDRVTISCSASQDISNYLNWYQQKPDGTVKLLIYYTSSLHSGVPSRFSGSGSGTGYSLTISNLEPEDIATYYCQQYSKLPYTFGGGTKLEIKR
B16: SCT-Pa12 (antibody, mouse IgG1, kappa, V domains shown)
VH: QVQLQQSGAELARPGASVKLSCKASGYSFTSYGISWVKQRTGQGLEWIGDIYPRSGNTDYNEKFKGKATLTADKSSSTANMQLSSLTSEDSAIYFCARSGDGYLYAMDYWGQGTSVTVSS
VL: DIQMTQTTSSLSASLGDRVTISCRASQDISNYLNWYQQKPDGTVKLLIYYTSRLHSGVPSRFSGSGSGTDYSLTISNLEPEDIAPYYCQQYSKLPYTFGSGTKLEIKR
B17: SCT-Pa05 (antibody, mouse IgG1, kappa, V domains shown)
VH: EVQLQQSGAELVKPGASVKLSCTTSGFNIKDYYFHWVKQRTEQGLEWIGRIDPEDGETEYAPKFRDKATITADTSSNTAYLQLSSLTSEDTAIYYCARSLYYWGQGTTLTVSS
VL: DIVMTQSPSSLSVWAGEKVTMSCKSSQSLLNSGDQKNYLTWYQQKPGQSPKLLIYETSTRDYGVPDRFTGSGSGADFTLTISSVQAEDLAVYYCLNDLTYPLTFGAGTKLELKR
B18: SCT-Pa15 (antibody, mouse IgG1, kappa, V domains shown)
VH: QVQVKQSGPGLVQPSQSLSITCTVSGFSSTSYAIHWVRQSPGKGLEWLGVIWSGGTTDYNAAFISRLSFSKDNSKSQLFFKMNSLQADDTAMYYCARGNYYGMDYWGQGTSVTVSS
VL: DIVVTQSPASLAVSLGQRATISCRASESIDYDGDSYVNWYQQKPGQPPNLLIYAASNLESGIPARFSGGGSGTDFTLTIHPVEEEDAATYYCLQSYETPWTFGGGTKLEIKR

The target of the test is T1, Recombinant SARS-CoV-2 N protein His tagged (SARS-CoV-2, UniProt P0DTC9 1-419).
T1 construct: also called nucleocapsid (N) protein; recombinant HIS tagged SARS-CoV-2 N protein
Description: BLI (Octet Red 96E), mAb on anti-mouse Fc biosensor, N protein in solution, global 1:1 fit.
For orientation: Kd means the equilibrium constant for the complex coming apart. What is called koff is the first-order rate constant of dissociation. The kon is the second-order rate constant of association. For the molecule B1, the Kd is 504 pM, the koff amounted to 0.00017 s⁻¹ and the kon came to 337000 M⁻¹ s⁻¹.
The like results for B2 were, in that order, 2780 pM, 0.000597 s⁻¹ and 215000 M⁻¹ s⁻¹.
The like results for B3 were, in that order, 53.1 pM, 2.67e-05 s⁻¹ and 503000 M⁻¹ s⁻¹.
The corresponding values for B4 are 939 pM, 0.000461 s⁻¹ and 491000 M⁻¹ s⁻¹.
Take B5: the Kd was 111 pM, the koff worked out at 5.75e-05 s⁻¹ and the kon worked out at 517000 M⁻¹ s⁻¹.
The like results for B6 were, in that order, 188 pM, 8.63e-05 s⁻¹ and 458000 M⁻¹ s⁻¹.
On to B7, for which the Kd is 128 pM, the koff is 7.23e-05 s⁻¹ and the kon turned out to be 566000 M⁻¹ s⁻¹.
With B8, the Kd turned out to be 897 pM, the koff was 0.000772 s⁻¹ and the on-rate (kon) was 860000 M⁻¹ s⁻¹.
Take B9: the Kd turned out to be 1490 pM, the dissociation rate constant (koff) stood at 0.00154 s⁻¹ and the kon turned out to be 1.04e+06 M⁻¹ s⁻¹.
As for B10, the Kd stood at 32.8 pM, the koff was determined as 1.64e-05 s⁻¹ and the association rate constant (kon) worked out at 498000 M⁻¹ s⁻¹.
The like results for B11 were, in that order, 1000 pM, 0.00073 s⁻¹ and 730000 M⁻¹ s⁻¹.
The corresponding values for B12 are 181 pM, 8.01e-05 s⁻¹ and 442000 M⁻¹ s⁻¹.
The like results for B13 were, in that order, 28.3 pM, 1.26e-05 s⁻¹ and 444000 M⁻¹ s⁻¹.
In the case of B14, the Kd turned out to be 335 pM, the koff turned out to be 0.000247 s⁻¹ and the kon was 738000 M⁻¹ s⁻¹.
The like results for B15 were, in that order, 228 pM, 0.000127 s⁻¹ and 557000 M⁻¹ s⁻¹.
As for B16, the Kd came out at 649 pM, the koff was determined as 0.000278 s⁻¹ and the kon came to 428000 M⁻¹ s⁻¹.
With B17, the Kd amounted to 289 pM, the off-rate constant (koff) amounted to 0.00018 s⁻¹ and the kon is 624000 M⁻¹ s⁻¹.
The corresponding values for B18 are 994 pM, 0.000862 s⁻¹ and 868000 M⁻¹ s⁻¹.
